Experimental data reported in US20230212319A1, “NOVEL ANTIGEN BINDING DOMAINS AND SYNTHETIC ANTIGEN RECEPTORS INCORPORATING THE SAME” (University of Southern California, priority 2020, published 2023).

Tests used:
[1] = system: Nalm6 cells; assay: JNG assay, co-culture with Nalm6 cells; assay type: cell-based; settings: co-culture with Nalm6
Protocol: Cellular supernatant is collected and assayed for the induction of cytokines (e.g., IL2).
JNG (Jurkat cells expressing EGFP under an NFAT promoter) were infected with lentiviral vectors encoding different single chain and multi-chain SARs by spinfection in the presence of 8 µg/ml of Polybrene® (Sigma, Catalog no. H9268). The Jurkat-NFAT-GFP cells are engineered in such a way that the IL-2 promoter, which carries NFAT binding sites, is cloned upstream of the GFP gene. These cells have been used to study signaling via TCR and CAR. The different SARs were stably expressed in Jurkat NFAT-GFP cells by lentiviral mediated gene transfer, followed by selection with puromycin or blasticidin. No drug selection was used in case the construct lacked an antibiotic resistance gene. The SAR-expressing Jurkat-NFAT-GFP cells were cocultured with the target cells at E:T ratio of approximately 1:2 for approximately 4 hours to 18 hours. When the interaction between SIRs and their target antigen results in activation of the NFAT pathway, GFP expression is induced. […] GFP expression was monitored by FACS analysis. The Jurkat-NFAT-GFP (parental) cells were used as control. The structure of different constructs can be determined based on their names. For example, the construct CD8SP-CD19-hu-mROO5-1-vL-[hTCRa-C SDVP]-F-F2A-Spe-IgHSP-Apa-CD20-vHH-2HCD25-G4S-CDl9-hu-mROO5-1-vH-Mlu-[hTCRb-KACIAH]-F-P2A-PAC has the following modules from 5′ to 3′ direction: a CD8 signal peptide (CD8SP), the CD19 targeting hu-mROO5-1 vL fragment (CD19-hu-mROO5-1), Xho1 cloning site, human TCRa constant chain containing CSDVP mutations (hTCRa-CSDVP), Furine cleavage site (F), F2A ribosomal skip sequence (F2A), SpeI site, human IgH signal peptide (IgHSP), Apa I restriction enzyme site, camelid CD20-2HCD25-VHH module targeting CD20, BamHI restriction enzyme site, Glycinex4-serine linker (G4S), BstI restriction enzyme site, CD19-hu-mROO5-1-vH fragment targeting CD19, Mlu I restriction enzyme site, human TCRb constant chain containing KACIAH mutations ([hTCRb-KACIAH]), Furine cleavage site (F), P2A ribosomal skip sequence and Puromycin resistance gene (PAC). The sequence of the other constructs in the table can be similarly determined from their names and by referring to the different Tables of this disclosure that provide the names and SEQ ID NO of the different modules. Alternatively, the composition and modular architecture of the different SAR constructs can be determined from their sequences by bioinformatics tools, including using nucleic acid and amino acids homology searches. A SAR is considered positive in the assay in case the SAR expressing Jurkat-NFAT-GFP cells show greater % GFP positive cells when cultured with the target cell line as compared to parental Jurkat-NFAT-GFP cells. The signs +/-, +, 2+ etc. after the name of the cell lines indicate the relative degree of positivity on the Jurkat-NFAT-GFP assay as measured by the % GFP positive cells after culture of the SAR expressing Jurkat-NFAT-GFP cells with that cell line above the % GFP cells observed in parental Jurkat NFAT-GFP cells serving as controls. In general, the number +/-, +, 2+, 3+, 4+, 5+ refer to approximately 5%, 10%, 20%, 30%, 40% and 50% GFP positive cells. The % of GFP induction in the above assay is dependent not only the relative strength of the SAR but also, among other factors, on the relative level of expression of the SAR in the JNG cells and the relative level of expression of the target antigen in the target cell line. To control for the difference in gene transduction efficiency of the different SAR constructs, the experiment was conducted with JNG cells transduced with SAR constructs co-expressing a drug resistance gene (e.g., puromycin or PAC) followed by drug selection to generate a stable population of SAR-expressing cells. […]

[2] = system: RAJI cells; assay: JNG assay, co-culture with RAJI cells; assay type: cell-based; settings: JNG cells expressing construct, co-culture with Raji
Summary of the method: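 Read-out is NFAT-driven GFP measured by flow cytometry after ~4–18 h co-culture of SAR-expressing JNG cells with target cells (E:T about 1:2). SARs were introduced by lentiviral spinfection and selected with puromycin or blasticidin when possible; scores (+/- to 5+ ≈ 5–50% GFP+) are relative to parental JNG cells.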

Molecule | NFAT-GFP ASSAY: Nalm6 [1] | NFAT-GFP ASSAY: Raji [2]
22096 (protein) MALPVTALLLPLALLLHAARPQLQLQESGPGLVKPSETLSLTCTVSGDSISSGDYYWGWIRQPPGKGLEWIGHIYYSGVTYYNPSLKSRVTISVDTSRNQFSLKLSSVTAADTAVYYCTREDSSNWRSRGQGTLVTVSSLEGQPKANPTVTLFPPSSEELQANKATLVCLISDFYPGAVTVAWKADGSPVKAGVETTKPSKQSNNKYAASSYLSLTPEQWKSHRSYSCQVTHEGSTVEKTVAPTECSPIKTDVITMDPKDNCSKDANDTLLLQLTNTSAYYMYLLLLLKSVVYFAIITCCLLRRTAFCCNGEKSRAKRSGSGATNFSLLKQAGDVEENPGPTSMDWIWRILFLVGAATGAHSFEVQLLESGGGLIQPGGSLRLSCAASGFTFSSHAMTWVRQAPGKGLEWVSAISGSGDYTHYADSVKGRFTISRDNSKNTVYLQMNSLRAEDSAVYYCAKDEDGGSLLGHRGQGTLVTVSSTRASTKGPSVFPLAPSSKSTSGGTAALGCLVKDYFPEPVTVSWNSGALTSGVHTFPAVLQSSGLYSLSSVVTVPSSSLGTQTYICNVNHKPSNTKVDKRVEPKSCEVKTDSTDHVKPKETENTKQPSKSCHKPKAIVHTEKVNMMSLTVLGLRMLFAKTVAVNFLLTAKLFFLRAKRSGSGVKQTLNFDLLKLAGDVESNPGPSRGHMTEYKPTVRLATRDDVPRAVRTLAAAFADYPATRHTVDPDRHIERVTELQELFLTRVGLDIGKVWVADDGAAVAVWTTPESVEAGAVFAEIGPRMAELSGSRLAAQQQMEGLLAPHRPKEPAWFLATVGVSPDHQGKGLGSAVVLPGVEAAERAGVPAFLETSAPRNLPFYERLGFTVTADVEVPEGPRTWCMTRKPGA | + (refer to approximately 5%, 10%, 20%, 30%, 40% and 50% GFP positive cells) | 2+ (refer to approximately 5%, 10%, 20%, 30%, 40% and 50% GFP positive cells)
22091 (protein) MALPVTALLLPLALLLHAARPQLQLQESGPGLVKPSETLSLTCTVSGDSISSGDYYWGWIRQPPGKGLEWIGHIYYSGVTYYNPSLKSRVTISVDTSRNQFSLKLSSVTAADTAVYYCTREDSSNWRSRGQGTLVTVSSLEDLKNVFPPEVAVFEPSKAEIAHTQKATLVCLATGFYPDHVELSWWVNGKEVHSGVCTDPQPLKEQPALNDSRYCLSSRLRVSATFWQNPRNHFRCQVQFYGLSENDEWTQDRAKPVTQIVSAEAWGRADCGITSASYHQGVLSATILYEILLGKATLYAVLVSALVLMAMVKRKDSRGRAKRSGSGATNFSLLKQAGDVEENPGPTSMDWIWRILFLVGAATGAHSFEVQLLESGGGLIQPGGSLRLSCAASGFTFSSHAMTWVRQAPGKGLEWVSAISGSGDYTHYADSVKGRFTISRDNSKNTVYLQMNSLRAEDSAVYYCAKDEDGGSLLGHRGQGTLVTVSSTRIQNPDPAVYQLRDSKSSDKSVCLFTDFDSQTNVSQSKDSDVYITDKCVLDMRSMDFKSNSAVAWSNKSDFACANAFNNSIIPEDTFFPSPESSCDVKLVEKSFETDTNLNFQNLSVIGFRILLLKVAGFNLLMTLRLWSSRAKRSGSGVKQTLNFDLLKLAGDVESNPGPSRGHMTEYKPTVRLATRDDVPRAVRTLAAAFADYPATRHTVDPDRHIERVTELQELFLTRVGLDIGKVWVADDGAAVAVWTTPESVEAGAVFAEIGPRMAELSGSRLAAQQQMEGLLAPHRPKEPAWFLATVGVSPDHQGKGLGSAVVLPGVEAAERAGVPAFLETSAPRNLPFYERLGFTVTADVEVPEGPRTWCMTRKPGA | +/- (refer to approximately 5%, 10%, 20%, 30%, 40% and 50% GFP positive cells) | + (refer to approximately 5%, 10%, 20%, 30%, 40% and 50% GFP positive cells)
22209 (protein) MALPVTALLLPLALLLHAARPACPYINIYNAEPANPSEKNSPTQYAYGTGGGGSGGGGSGGGGSEFDIQMTQSPSSLSASVGDRVTITCKASDHINNWLAWYQQKPGQAPKLLIYGATTLETGVPSRFSGSGSGTDYTLTISSLQPEDFATYYCQQSWNTPWTFGQGTKLEIKRLEDLKNVFPPEVAVFEPSKAEIAHTQKATLVCLATGFYPDHVELSWWVNGKEVHSGVCTDPQPLKEQPALNDSRYCLSSRLRVSATFWQNPRNHFRCQVQFYGLSENDEWTQDRAKPVTQIVSAEAWGRADCGITSASYHQGVLSATILYEILLGKATLYAVLVSALVLMAMVKRKDSRGRAKRSGSGATNFSLLKQAGDVEENPGPTSATMDWIWRILFLVGAATGAHSGPQVQLQESGGGLAQAGGSLRLSCAASGRTFSMGWFRQAPGKEREFVAAITYSGGSPYYASSVRGRFTISRDNAKNTVYLQMNSLKPEDTAVYYCAANPTYGSDWNAENWGQGTQVTVSSGSGGGGSGGGGSGGGGSFEQVQLQQPGAELVKPGASVKMSCKASGYAFSSYWINWMKQKPGQGLEWIGQIYPGDGDTNYNGKFKGRATLTADTSSSTAYMQLSSLTSEDSAVYFCARSITTVVGCAMDYWGQGTSVTVSSTRIQNPDPAVYQLRDSKSSDKSVCLFTDFDSQTNVSQSKDSDVYITDKCVLDMRSMDFKSNSAVAWSNKSDFACANAFNNSIIPEDTFFPSSDVPCDVKLVEKSFETDTNLNFQNLSVIGFRILLLKVAGFNLLMTLRLWSSRAKRSGSGVKQTLNFDLLKLAGDVESNPGPSRGHMTEYKPTVRLATRDDVPRAVRTLAAAFADYPATRHTVDPDRHIERVTELQELFLTRVGLDIGKVWVADDGAAVAVWTTPESVEAGAVFAEIGPRMAELSGSRLAAQQQMEGLLAPHRPKEPAWFLATVGVSPDHQGKGLGSAVVLPGVEAAERAGVPAFLETSAPRNLPFYERLGFTVTADVEVPEGPRTWCMTRKPGA | 2+ (refer to approximately 5%, 10%, 20%, 30%, 40% and 50% GFP positive cells) | 2+ (refer to approximately 5%, 10%, 20%, 30%, 40% and 50% GFP positive cells)
22210 (protein) MALPVTALLLPLALLLHAARPACPQLGPYELWELSHGTGGGGSGGGGSGGGGSEFDIQMTQSPSSLSASVGDRVTITCKASDHINNWLAWYQQKPGQAPKLLIYGATTLETGVPSRFSGSGSGTDYTLTISSLQPEDFATYYCQQSWNTPWTFGQGTKLEIKRLEDLKNVFPPEVAVFEPSKAEIAHTQKATLVCLATGFYPDHVELSWWVNGKEVHSGVCTDPQPLKEQPALNDSRYCLSSRLRVSATFWQNPRNHFRCQVQFYGLSENDEWTQDRAKPVTQIVSAEAWGRADCGITSASYHQGVLSATILYEILLGKATLYAVLVSALVLMAMVKRKDSRGRAKRSGSGATNFSLLKQAGDVEENPGPTSATMDWIWRILFLVGAATGAHSGPQVQLQESGGGLAQAGGSLRLSCAASGRTFSMGWFRQAPGKEREFVAAITYSGGSPYYASSVRGRFTISRDNAKNTVYLQMNSLKPEDTAVYYCAANPTYGSDWNAENWGQGTQVTVSSGSGGGGSGGGGSGGGGSFEQVQLQQPGAELVKPGASVKMSCKASGYAFSSYWINWMKQKPGQGLEWIGQIYPGDGDTNYNGKFKGRATLTADTSSSTAYMQLSSLTSEDSAVYFCARSITTVVGCAMDYWGQGTSVTVSSTRIQNPDPAVYQLRDSKSSDKSVCLFTDFDSQTNVSQSKDSDVYITDKCVLDMRSMDFKSNSAVAWSNKSDFACANAFNNSIIPEDTFFPSSDVPCDVKLVEKSFETDTNLNFQNLSVIGFRILLLKVAGFNLLMTLRLWSSRAKRSGSGVKQTLNFDLLKLAGDVESNPGPSRGHMTEYKPTVRLATRDDVPRAVRTLAAAFADYPATRHTVDPDRHIERVTELQELFLTRVGLDIGKVWVADDGAAVAVWTTPESVEAGAVFAEIGPRMAELSGSRLAAQQQMEGLLAPHRPKEPAWFLATVGVSPDHQGKGLGSAVVLPGVEAAERAGVPAFLETSAPRNLPFYERLGFTVTADVEVPEGPRTWCMTRKPGA | + (refer to approximately 5%, 10%, 20%, 30%, 40% and 50% GFP positive cells) | 2+ (refer to approximately 5%, 10%, 20%, 30%, 40% and 50% GFP positive cells)
